Assay results: patent US11028159B2 (priority 2017, dated 2021)

Tested on: venoms of different snake species
Type: binding

B1: VHH candidate against cobrotoxin: camelid (llama) single-domain VHH antibody binding cobrotoxin, SEQ ID NO 4 (protein)
VHH: MAQVQLQESGGGLAQAGGSLRLSCSASRNIFRVYGWYRQAPGKQREWVASITRDDSTAYADSVKGRFTISRDSAKNTMYLQMSSLRLEDTSTYYCAAQSISGTIQWGQGTQVTVSSTSGPGGQHHHHHHGAEQKLISEEDLS
With B1 the “number of venoms of different snake species bound (ELISA)” value was “at least 6”.
